Biological target: HLA-B*0701 (as printed in the head of Table XXII) (human)
Assay: competitive inhibition of radiolabeled standard peptide binding to purified HLA

## HBV ENV 313 analog with F at position 1 (peptide; other documents disagree on this pair)
  IC50: 24 nM

Reference: patent US7611713
